Three molecules from patent publication US9050375B2, “Bi-specific digoxigenin binding antibodies” (priority 2009, dated 2015) can be followed below.

One may read the IC50 as the concentration that inhibits the measured activity by half. The low end stands for greater potency in that assay, the high end for weaker potency in that assay. By Kd is commonly meant the equilibrium constant for the complex coming apart.

Where “and” joins values, the source holds several entries; their conditions need not be identical. Equal values may be shown once.

Data set [1] relates to IGF1R expressing H322M tumor xenografts. The data set is described as follows: Near Infrared Fluorescence Imaging (NIRF) in vivo, H322M xenografts. Conditions: not complexed with antibody; some accumulation in the liver. Further details: species or system mice. Here is the method: To analyze if the specific antigen binding functionality of the antibody-complexes can be utilized to specifically deliver imaging reagents to tumor cells, we performed Near Infrared Fluorescence Imaging Studies (NIRF) in vivo. […] These xenografts were either expressing the antigen Her2 (KPL4 cells) or the antigen IGF1R (H322M cells). Subsequently NIRF imaging was performed by using the Maestro system from CRI. Animals were placed in a measuring chamber and the fluorescence was measured over a defined spectral wavelength array, depending on the dye. Spectral information of each pixel of the obtained image was analyzed by a special software which allows to separate different pre-defined spectra, e.g. autofluorescence and the signal of the dye. Theses separated specific signals were quantified by the Maestro software in order to compare different samples.
To analyze whether the <Her2>-<Dig>-Dig-siRNA complexes, and <IGF1R>-<Dig>-Dig-siRNA complexes mediate specific targeting of their payload towards antigen expressing cells not only in cell culture experiments but also in live animals, we made use of the fact that siRNAs can simultaneously be labeled with Dig as well as with fluorescence labels. […] The technology that we've applied for this task is Near Infrared Fluorescence Imaging (NIRF) in vivo. […]

The nature of data set [2]: Excitation and emission spectra of Cy5, Dig-Cy5 and complex. Type of data set: physicochemical. The text has this:
To evaluate whether digoxygenation of Cy5 alters its fluorescence features, we compared the excitation and emission spectra of Cy5 and compared it with the spectra of the newly generated Dig-Cy5 and with Dig-Cy5 within a complex with bispecific antibodies. […] We conclude that Dig-Cy5 and -complexes can be applied for antibody-mediated targeting and in vivo imaging.

Data set [3] deals with CD22 positive Raji and Ramos cells. Nature of the data set: FACS analysis with <CD22>-<DIG> and DIG-Cy5. It is filed as cell-based. The conditions noted are these: 5 μg/ml <CD22>-<DIG>, DIG-Cy5 66.4 nM. Here is the method:
For these analyses we used CD22 positive Raji and Ramos cells and the bispecific <CD22>-<DIG> antibody. 3×10^5 cells per well of a 96-well-plate were incubated with 5 μg/ml of the <CD22>-<DIG> antibody in FACS buffer (PBS containing 5% FCS). After washing the cells were incubated with DIG-Cy5 in a final concentration of 66.4 nM. After another washing step cells were analysed with the FACS canto II (BD Biosciences).
Background: Flow cytometry measures light scatter and fluorescence of single cells or particles in a stream.

In data set [4] the test system is H322M cells. The data set is described as follows: CellTiter Glo Luminescent Cell Viability Assay, doxorubicin. Type of data set: cell-based. The conditions noted are these: Homo sapiens, NCI-H322M, 48 hours.
Protocol: (§2) Then, cell viability was assessed by applying the CellTiter Glo Luminescent Cell Viability Assay (Promega, Madison, Wis.).
Data set [5] has as its system KPL-4 cells. The description is as above. Type of data set: cell-based. Conditions: Homo sapiens, KPL4, 48 hours.
Protocol: as §2
In data set [6] the test system is MDA-MB-468 cells. The description is as above. Conditions: Homo sapiens, 48 hours. It is filed as cell-based.
Protocol: as §2
These experiments included an additional breast tumor cell line MDA-MB-468. […] Thereafter, cell viability was assessed by applying the CellTiter Glo Luminescent Cell Viability Assay (Promega, Madison, Wis.).
The subject of data set [7] is DIG-Myoglobin. The data set is described as follows: SPR binding to mono-digoxygenated protein DIG-myoglobin. Conditions: analyte DIG-Myoglobin; replicate lines; listed as <DIG>hu2. How it is done: (§1) For that, binding properties of the recombinant <Dig> derivatives were analyzed by surface plasmon resonance (SPR) technology using a Biacore T100 or Biacore 3000 instrument (GE Healthcare Bio-Sciences AB, Uppsala). This system is well established for the study of molecule interactions. It allows a continuous real-time monitoring of ligand/analyte bindings and thus the determination of association rate constants (ka), dissociation rate constants (kd), and equilibrium constants (KD) in various assay settings. SPR-technology is based on the measurement of the refractive index close to the surface of a gold coated biosensor chip. Changes in the refractive index indicate mass changes on the surface caused by the interaction of immobilized ligand with analyte injected in solution. If molecules bind to immobilized ligand on the surface the mass increases, in case of dissociation the mass decreases. To perform the binding studies capturing anti-human IgG antibody was immobilized on the surface of a CM5 biosensor chip using amine-coupling chemistry. Flow cells were activated with a 1:1 mixture of 0.1 M N-hydroxysuccinimide and 0.1 M 3-(N,N-dimethylamino)propyl-N-ethylcarbodiimide at a flow rate of 5 μl/min. […] A reference control flow cell was treated in the same way but with vehicle buffers only instead of the capturing antibody. Surfaces were blocked with an injection of 1 M ethanolamine/HCl pH 8.5. To compare the binding of the humanized protein variants with that of the murine <Dig> IgG from the original hybridoma 19-11, capturing anti-mouse IgG antibody was immobilized on the surface of a CM5 biosensor chip in the same fashion as described above for the anti-human IgG antibody. To evaluate the functionality of the recombinant <Dig> derivatives, binding of the recombinant hu<Dig> modules, incl. (i) humanized IgG, (ii) fusion proteins harboring hu<Dig> scFv or (iii) disulfide-stabilized scFvs was assayed with different digoxygenated antigens The resulting binding affinities were compared to the binding of the murine ‘wildtype’ DIG-IgG from which the recombinant humanized modules were derived.
Another SPR study was performed in which the binding affinity of <DIG>-hu2, IGF1R-DIG and <DIG> M-19-11 was compared in terms of binding to the mono-digoxygenated protein DIG-myoglobin.
In general terms: SPR reads the build-up and loss of mass on a sensor chip optically.

For data set [8], the target named is DIG-siRNA2349. Nature of the data set: SPR binding to DIG-siRNA2349. The conditions noted are these: analyte DIG-siRNA2349; replicate lines; listed as <DIG>hu2. How it is done:
as §1, with “derived. […]” for “derived.”

The target in data set [9] is Eg5-siRNA-(2×)DIG. Nature of the data set: SPR (Biacore) binding to bi-digoxygenated siRNA. Conditions: 25° C., read-out: KD, binding of siRNA-(2x)DIG.
Protocol: (§3) For that, binding properties of the recombinant <Dig> derivatives were analyzed by surface plasmon resonance (SPR) technology using a Biacore T100 or Biacore 3000 instrument (GE Healthcare Bio-Sciences AB, Uppsala). […] To perform the binding studies capturing anti-human IgG antibody was immobilized on the surface of a CM5 biosensor chip using amine-coupling chemistry. Flow cells were activated with a 1:1 mixture of 0.1 M N-hydroxysuccinimide and 0.1 M 3-(N,N-dimethylamino)propyl-N-ethylcarbodiimide at a flow rate of 5 μl/min. […] A reference control flow cell was treated in the same way but with vehicle buffers only instead of the capturing antibody. Surfaces were blocked with an injection of 1 M ethanolamine/HCl pH 8.5. […]
(§4) Anti-mouse IgG antibody was immobilized on the surface of a CM5 biosensor chip in the same fashion as described above. […] The samples to be analyzed were diluted in HBS-P (10 mM HEPES, pH 7.4, 150 mM NaCl, 0.005% Surfactant P20) and injected at a flow rate of 5 μl/min. […] Signals were detected at a rate of one signal per second.
(§5) The samples to be analyzed were diluted in HBS-P and injected at a flow rate of 5 μl/min. […]
Data set [10] has as its target Eg5-siRNA-DIG. The data set is described as follows: SPR (Biacore) binding to mono-digoxygenated siRNA. The conditions noted are these: 25° C.
Protocol: as §3, §4, §5
The nature of data set [11]: SPR (BiaCore) of sequence-optimized anti-Dig modules. It is filed as binding. Conditions: FIG. 46 c, d, read-out: KD of anti-Dig module. An excerpt:
Further optimization of the humanized VH and VL sequences of the anti-digoxygenin antibody was applied to generate modules with even higher affinity towards digoxygenin. Based upon the experimentally determined as well as in-silico calculated predicted structures (see above, based upon structure modeling without experimental structure determination), we identified three positions in which alterations might affect affinity. These were located at (Kabat positions) Ser49, Ile57 and Ala60 of the VH domain (FIG. 46). Replacement of the amino acid VHSer49 with Ala, VHIle57 with Ala and of VHAla60 with Pro generated antibody derivatives with sequences that are listed as SEQ ID NO 36 and SEQ ID NO 37. […] The relevance of these positions was thereafter confirmed by inspecting the experimentally determined structure of the dig-binding variable region. The digoxygenin binding module with improved affinity can be applied as hapten-binding entity for various bi- and multispecific antibody derivatives.
For that, binding properties of the recombinant <Dig> derivatives were analyzed by surface plasmon resonance (SPR) technology using a Biacore T100 or Biacore 3000 instrument (GE Healthcare Bio-Sciences AB, Uppsala). This system is well established for the study of molecule interactions. […]

With `CCN1c2ccc(S(=O)(=O)O)cc2C(C)(C)C1/C=C/C=C/C=C1\N(CCCCCC(=O)NCCNC(=O)CO[C@H]2CC[C@@]3(C)[C@H](CC[C@@H]4[C@@H]3C[C@@H](O)[C@]3(C)[C@@H](C5=CC(=O)OC5)CC[C@]43O)C2)c2ccc(S(=O)(=O)O)cc2C1(C)C` (stereo partly drawn) [Dig-Cy5], the “tumor specific fluorescence (NIRF) without antibody” value in [1] is listed as “no tumor specific fluorescence”. Further, in [2], the “Emission wavelength (max.)” value is “at 670 nm” and the Excitation wavelength is given as 575-605 nm. Also, the “binding to Raji or Ramos cells (FACS)” value in [3] is “hardly any binding”.

Consider `COc1cccc2c1C(=O)c1c(O)c3c(c(O)c1C2=O)C[C@@](O)(C(=O)CO)C[C@@H]3O[C@H]1C[C@H](N)[C@H](O)[C@H](C)O1` [doxorubicin, Doxorubicin], for which the IC50 came out at 25000 nM in data set [4], 2600 nM in data set [5] and 17000 nM in data set [6].

B1: humanized DIG-IgG: recombinant humanized anti-digoxigenin IgG; Seq. ID. NO. 3-6 (antibody, V domains shown)
VH: QVQLVESGGGLVKPGGSLRLSCAASGFTFSDYAMSWIRQAPGKGLEWVSSINIGATYIYYADSVKGRFTISRDNAKNSLYLQMNSLRAEDTAVYYCARPGSPYEYDKAYYSMAYWGQGTTVTVSS
VL: DIQMTQSPSSLSASVGDRVTITCRASQDIKNYLNWYQQKPGKAPKLLIYYSSTLLSGVPSRFSGSGSGTDFTLTISSLQPEDFATYYCQQSITLPPTFGGGTKVEIKR
notes: recombinant humanized anti-digoxigenin IgG; ID; NO; 3-6
As to B1, the ka in [7] is 620000 M⁻¹ s⁻¹ and 749000 M⁻¹ s⁻¹; in data set [8], 645000 M⁻¹ s⁻¹ and 628000 M⁻¹ s⁻¹. The kd in [7] was 0.00982 s⁻¹ and 0.00881 s⁻¹; in data set [8], 0.00937 s⁻¹ and 0.0098 s⁻¹. Moreover, the Kd in [8] was 14.5 nM and 15.6 nM; in data set [9], 0.008 nM; in data set [10] it was 12 nM; in data set [11] it was 12 nM.
